Assay in all cases: SPR, mAb captured, C2 mutant analyte;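 further: Anti-C2 mAbs captured on goat anti-human IgG Biacore CM5 chips, alanine or serine C2 surface mutants flowed over at 37 °C, double-referenced sensorgrams fitted to a 1:1 binding model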
In one assay the target is T1, human C2 N325A (human, UniProt P06681 21-752).
T1 sequence: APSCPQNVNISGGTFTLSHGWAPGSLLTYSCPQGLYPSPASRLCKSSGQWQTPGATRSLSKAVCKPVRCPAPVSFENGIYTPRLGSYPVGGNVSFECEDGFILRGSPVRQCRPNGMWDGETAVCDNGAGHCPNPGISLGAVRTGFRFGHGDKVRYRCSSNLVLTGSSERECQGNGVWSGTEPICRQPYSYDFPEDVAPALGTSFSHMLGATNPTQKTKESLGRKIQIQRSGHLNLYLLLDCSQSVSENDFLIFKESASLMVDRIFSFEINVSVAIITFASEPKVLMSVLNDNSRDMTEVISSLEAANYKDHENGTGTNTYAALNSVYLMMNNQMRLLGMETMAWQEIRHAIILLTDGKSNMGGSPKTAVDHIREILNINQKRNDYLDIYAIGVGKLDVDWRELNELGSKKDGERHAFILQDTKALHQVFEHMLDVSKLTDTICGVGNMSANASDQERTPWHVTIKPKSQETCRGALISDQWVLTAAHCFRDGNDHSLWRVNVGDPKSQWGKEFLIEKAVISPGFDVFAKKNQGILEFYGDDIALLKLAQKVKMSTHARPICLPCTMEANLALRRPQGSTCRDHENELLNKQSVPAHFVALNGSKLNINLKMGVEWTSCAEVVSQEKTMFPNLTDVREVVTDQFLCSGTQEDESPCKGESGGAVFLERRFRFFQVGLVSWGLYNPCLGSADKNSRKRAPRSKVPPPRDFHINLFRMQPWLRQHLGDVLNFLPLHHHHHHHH

A further assay addresses T2, human C2 W420A (human, UniProt P06681 21-752).
T2 sequence: T1 sequence with A305N, W400A

The target in another assay is T3, human C2 T442A (human, UniProt P06681 21-752).
T3 sequence: T1 sequence with A305N, T422A

In another assay the target is T4, human C2 H446A (human, UniProt P06681 21-752).
T4 sequence: T1 sequence with A305N, H426A

For orientation: Kd means the constant that tells how readily two partners part at equilibrium. A higher Kd goes with lower affinity.

Residue numbers refer to the chain shown, from its start.

Description for human C2 H446A: (§1) Surface plasmon resonance (SPR, Biacore) was used for all binding affinity analyses. In brief, goat anti-human IgG was directly immobilised onto the carboxymethyl dextran surface of CM5 sensorchips to approximately 12,000 RU using standard NHS/EDC chemistry at pH 5. The immobilised antibody surface was pre-conditioned with ten injections of polyclonal human IgG (Privigen 60 s) prepared at 1 μg/mL. Ligands (anti-C2 mAbs) were captured at the beginning of each cycle as described below. An adjacent spot or flow cell in which only Polyclonal IgG was capture was used as a reference surface. The goat anti-human IgG Fc antibody surface was regenerate in 100 mM H3PO4, injected for 45 seconds at the end of each cycle. Experiments were performed at 37° C. and the flow rate of each experiment was kept constant at 30 μL/min.
(§2) Sensogram data was double-referenced against a reference anti-IgG surface (i.e. minus anti-C2 mAb) and blank buffer injections obtained within each experiment. The binding data was fit to 1:1 (kinetic or steady-state) model using local Rmax and null refraction index (RI=0) when appropriate. Buffers and solutions were filtered (0.22 μm) prior to use.
Description for human C2 N325A: as §1, §2
Description for human C2 T442A: as §1, §2
Description for human C2 W420A: as §1, §2

B1: RF16-214 (antibody, V domains shown)
VH: EVQLLESGGGLVQPGGSLRLSCAASGFTFSWYQMMWVRQAPGKGLEWVSRIYPSGGGTAYADSVKGRFTISRDNSKNTLYLQMNSLRAEDTAVYYCARDAGYGDNWGQGTLVTVSS
VL: QSALTQPPSVSVSPGQTASITCSGDKLGEKYASWYQQKAGQSPVMVIYQDRKRPSGIPERFSGSNSGNTATLTISGTQAMDEADYYCQAWDTRAVVFGGGTKLTVLG
For the molecule B1, the dissociation constant (Kd) with human C2 N325A was found to be 328 nM; in the assay with human C2 W420A it was 34.9 nM; with human C2 T442A it was 70.7 nM; with human C2 H446A, 153 nM.

The record behind these values is patent US20220332804A1 (CSL INNOVATION, published 2022).
